Here are results for four molecules from patent US20130302399A1 (ALDERBIO, published 2013).

Residue numbers refer to the chain shown, from its start.

B1: Ab22 (antibody, human IgG1, kappa, N297A, V domains shown)
VH: EVQLVESGGGLVQPGGSLRLSCAASGFSLSSYAMNWVRQAPGKGLEWIGAIRSSGATFFASSVNGRFTISRDNSKNTVYLQMNSLRAEDTAVYYCARDTNDGWYINRLDLWGQGTLVTVSS
VL: AVLTQSPSTLSASVGDRVTITCQSSKSVYSNYLSWFQQKPGKAPKFLIYKASTLASGVPSRFSGSGSGTEFTLTISSLQPDDFATYYCAGGDTNIADNAFGGGTKVEIKR
notes: also called antibody Ab22
B2: Ab21 (antibody, human IgG1, kappa, N297A, V domains shown)
VH: QSVEESGGRLVTPGTPLTLTCTVSGFSLSSYAMNWVRQAPGKGLEWIGAIRSSGATFFASWVNGRFTISKTSTTVDLKITSPTPEDTATYFCARDTNDGWYINRLDLWGPGTLVTVSS
VL: AAVLTQTPSPVSAAVGGTVSISCQSSKSVYSNYLSWFQQKPGQPPKFLIYKASTLASGVPSRFKGSGSGTQFTLTISDVQCDDAATYYCAGGDTNISDNAFGGGTEVVVKR
notes: also called antibody Ab21
B3: Ab23 (antibody, human IgG1, kappa, N297A, V domains shown)
VH: QSLEESGGDLVKPGASLTLTCKASGFSFSSGYYMCWVRQAPGKGLEWIACIYAGSGGSTFFANWAKGRFTISKTSSTTVTLQMTSLTAADTATYFCARDGGYAGYGYAFFNLWGPGTLVTVSS
VL: DVVMTQTPASVSEPVGGTVTIKCQASERIYSGLAWYQQKPGQPPKLLIYGASTLASGVPSRFKGSGSGTDFTLTISDLECDDAAIYYCQCTYYGSSYPNVFGGGTEVVVKR
notes: also called antibody Ab23
B4: Ab24 (antibody, human IgG1, kappa, N297A, V domains shown)
VH: B3 VH
VL: B3 VL with C90A
notes: also called antibody Ab24

For this test, the target named is T1, human Proprotein Convertase Subtilisin-like/Kexin type 9 (human, UniProt Q8NBP7 31-692, limits assumed).
T1 construct: Biotinylated in the ELISAs; unlabelled analyte in BLI and SPR; also called human PCSK9; PCSK9
T1 sequence (Q8NBP7 31-692 limits assumed): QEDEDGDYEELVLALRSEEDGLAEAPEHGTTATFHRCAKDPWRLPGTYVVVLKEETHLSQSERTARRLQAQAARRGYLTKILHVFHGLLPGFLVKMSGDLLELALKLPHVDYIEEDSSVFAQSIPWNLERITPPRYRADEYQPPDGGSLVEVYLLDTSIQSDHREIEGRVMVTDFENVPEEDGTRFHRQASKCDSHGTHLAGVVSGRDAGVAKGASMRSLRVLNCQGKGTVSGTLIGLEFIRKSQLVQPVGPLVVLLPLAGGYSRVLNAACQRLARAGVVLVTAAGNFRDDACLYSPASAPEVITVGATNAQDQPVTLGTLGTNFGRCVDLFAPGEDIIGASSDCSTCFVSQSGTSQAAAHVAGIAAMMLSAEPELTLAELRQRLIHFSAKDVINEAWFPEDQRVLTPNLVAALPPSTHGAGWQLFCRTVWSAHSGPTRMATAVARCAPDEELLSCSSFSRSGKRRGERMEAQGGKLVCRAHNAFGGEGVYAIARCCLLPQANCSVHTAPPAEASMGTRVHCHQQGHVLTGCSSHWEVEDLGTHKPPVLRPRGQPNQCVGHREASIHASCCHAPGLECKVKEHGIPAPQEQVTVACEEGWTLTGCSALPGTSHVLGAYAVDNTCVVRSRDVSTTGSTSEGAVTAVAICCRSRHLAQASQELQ
Nature of the test: SPR (ProteOn XPR36), biotinylated antibody on neutravidin chip, human PCSK9 as analyte, 1:1 fit, mean of 4 densities. The protocol: Binding affinities of monoclonal antibodies for PCSK9 were estimated using Surface Plasmon Resonance (SPR) on the ProteOn XPR36 (Bio-Rad). Biotinylated antibody was immobilized at progressively increasing densities to the surface of Neutravidin (NLC) Chips. A dilution series of human PCSK9 prepared in 1×HBS-EP+Buffer (10 mM Hepes; 150 mM NaCl; 3 mM EDTA, 0.05% Polysorbate 20; pH 7.6 at 25° C.) purchased from Thermo Scientific and supplemented with 0.2 mg/mL Bovine Serum Albumin (BSA) from Jackson ImmunoResearch and 0.005% sodium azide from VWR was used to query the antibodies. At our chosen concentrations of antigen (˜0.08 μg/mL-6.7 μg/mL) association times of 4 minutes and dissociation times of 30-120 minutes were used with the ProteOn Manager Software (v3.1.0.6, Bio-Rad) to group and fit data using a 1:1 Langmuir binding model. Surfaces were regenerated between analyte queries and after binding antibody to the surface using 10 mM Glycine pH 2.0. Data across 4 different densities were averaged and a single KD and standard propagation of error calculated for each antibody.
For orientation: Kd means the equilibrium constant for the complex coming apart. Low readings indicate tighter binding, high ones weaker binding. One may read the koff as the first-order rate constant of dissociation. Low readings indicate slow dissociation, high ones fast dissociation. In general, kon refers to the rate constant with which the complex forms. Read a low kon as slow association. Regarding B1, the Kd came to 0.49 nM, the koff was determined as 0.000259 s⁻¹ and the kon worked out at 529000 M⁻¹ s⁻¹.
Regarding B2, binding was put at a Kd of 0.61 nM, the koff was 0.000354 s⁻¹ and the kon was 580000 M⁻¹ s⁻¹.
Taken in the same sequence, the figures for B3 were 0.04 nM, 3.71e-05 s⁻¹ and 928000 M⁻¹ s⁻¹.
The matching figures for B4: 0.09 nM, 6.16e-05 s⁻¹ and 684000 M⁻¹ s⁻¹.
